Results: publication PMC11240982, “Recapitulation of HIV-1 Neutralization Breadth in Plasma by the Combination of Two Broadly Neutralizing Antibodies from Different Lineages in the Same SHIV-Infected Rhesus Macaque” (International Journal of Molecular Sciences, 2024)

Target: T1, BG505 Env UFO (uncleaved prefusion-optimized) trimer with Avi tag (HIV-1 clade A, BG505, stabilised)
T1 construct: also called BG505 UFO trimer; BG505 UFO
Experiment: BLI; antibody (20 µg/mL) immobilised on Anti-hIgG-Fc Capture (AHC) biosensors; serially diluted BG505 UFO trimer or V3 peptide as analyte; OCTET Red96
Settings: both partners purified

B1: JT18 (antibody, V domains shown)
VH: EVQLVQSGAEVKRPGESLRISCKTSGYDFTDYWINWVRQMPGKGLEWVGMVYPSDSETAYSPSFRGRVTISADTSISTSYLQWTSLEASDTATYYCARPVSGTFALDVWGRGVLVAVSS
VL: QSVLTQPPSMSGAPGQRVTMSCTGGNSNIGANLYVQWYQQVPGTAPRLLIYEDNQRPSGVSDRFSGSRSGSSASLTITGLQSEDEADYYCQSYDNSLSTVLFGGGTRLTVL
notes: IGHV5-20*02, IGHJ5-2*02, IGHD1-44*02, CDR3 12 aa; constant region added, not specified; IGLV1S1*01, IGLJ3*01, CDR3 11 aa; Recombinant IgG; constant regions not specified (captured on anti-human IgG Fc biosensors, detected with anti-monkey IgG); source: HEK293T, co-transfected linear expression fragments, in supernatant (screen); Expi293F, co-transfected plasmids, purified (protein A agarose)
  Kd: 4.03 nM
